The values below come from patent US20220403048A1, “BINDING MOLECULES TO ARGINASE II [ARG2]” (Cancer Research Technology Limited, priority 2019, published 2022).

One test deals with T1, trimeric human ARG2 (Homo sapiens, UniProt P78540).
T1 construct: human ARG2 (aa23-354); His10 (C); made in house; host or cells: E. coli BL21 (DE3)
T1 sequence (P78540 23-354): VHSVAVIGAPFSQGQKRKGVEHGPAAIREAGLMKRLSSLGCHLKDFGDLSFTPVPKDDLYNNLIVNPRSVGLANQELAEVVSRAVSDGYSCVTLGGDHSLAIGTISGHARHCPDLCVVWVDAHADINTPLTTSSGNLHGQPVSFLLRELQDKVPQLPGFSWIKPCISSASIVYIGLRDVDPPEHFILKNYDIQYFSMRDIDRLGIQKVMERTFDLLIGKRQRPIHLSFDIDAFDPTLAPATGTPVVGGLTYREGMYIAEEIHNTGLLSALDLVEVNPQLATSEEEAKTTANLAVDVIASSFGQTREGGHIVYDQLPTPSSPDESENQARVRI
The test can be described thus: Human trimeric ARG2 enzyme inhibition assay (urea production). As to conditions: clones in scFv format, FIG. 9; read-out: Trimeric human ARG2 EIA IC50. In kind it is biochemical. As to the method: Unpurified anti-ARG2 scFv fragments from periplasmic preparations were screened in an ARG2 enzyme inhibition assay using a Pherastar plate reader (BMG Labtech, Germany). In this assay, the ability of unpurified scFv to inhibit the enzymatic activity of trimeric ARG2 was determined by measuring the production of urea, the product of L-arginine turnover by ARG2.
Selection outputs were screened as unpurified bacterial periplasmic extracts containing scFv, prepared in 200 mM TES buffer pH 7.4, 0.5 mM EDTA and 0.5 M sucrose. 10 μl of unpurified scFv were added to a Greiner Bio-One® 384 well assay plate (Greiner Bio-one, UK; cat: 781901). This was followed by the addition of 5 μl of 1.6 μg/ml trimeric human ARG2 that had been diluted in 40 mM MnCl2, 100 mM tris-HCl, pH7.4 (4× enzyme buffer). […]
Urea was detected by the simultaneous addition of equal volumes of O-Phthaldialdehyde (1.5 mM O-Phthaldialdehyde, 7% H2SO4, 0.03% Brij L23) and N-(1-Napthyl)ethylenediamine (1.66 mM N-(1-Napthyl)ethylenediamine, 81 mM Boric acid, 21% H2SO4, 0.03% Brij L23) followed by an 18 minute incubation at room temperature before the colorimetric product was quantified on the Pherastar by measuring absorbance at 505 nm. […]
Data were analysed by calculating % maximum (max) control for each sample using the 505 nm absorbance data. % max control was determined according to equation 2. […]
IC50 values were determined by testing a dilution series of the purified scFv, prepared in TBS, in the ARG2 enzyme inhibition assay described in section 1.5, substituting the unpurified scFv periplasmic preparation with the purified scFv.
Background control wells were defined for each plate by the omission of substrate. […] Data were analysed by calculating % maximum (max) control for each sample. % max control was determined according to equation 1 detailed in section 1.5. […]
Data were again analysed by calculating % Max control values for each sample. […]

Test [1] deals with T2, biotinylated recombinant human trimeric ARG2 enzyme (Homo sapiens, UniProt P78540, E275H/R327K).
T2 construct: His10 (after a GGG linker) (C); made in house; host or cells: E. coli BL21 (DE3)
T2 sequence (P78540 with tags, fused parts or gaps E275H/R327K): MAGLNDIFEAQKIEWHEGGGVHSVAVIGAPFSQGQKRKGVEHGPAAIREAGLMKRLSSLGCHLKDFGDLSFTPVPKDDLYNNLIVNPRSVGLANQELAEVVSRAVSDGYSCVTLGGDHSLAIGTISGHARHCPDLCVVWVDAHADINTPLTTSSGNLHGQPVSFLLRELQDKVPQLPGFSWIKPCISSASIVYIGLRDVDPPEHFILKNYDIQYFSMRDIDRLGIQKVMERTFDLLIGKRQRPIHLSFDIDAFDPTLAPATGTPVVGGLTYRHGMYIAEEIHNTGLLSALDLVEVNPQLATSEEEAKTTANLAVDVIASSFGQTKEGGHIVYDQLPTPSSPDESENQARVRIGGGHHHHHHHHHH
The test can be described thus: C0020187 IgG epitope competition HTRF assay. The following applies: clones in scFv format, FIG. 8; read-out: 18° IgG epitope competition assay IC50. In kind it is binding. The source says:
Two thousand and twenty four scFv chosen at random from selection rounds 3 and 4 of the targeted mutagenesis approach described in section 2.2, 2.3 and 2.4 were expressed in E. coli to produce unpurified periplasmic scFv. Those scFv capable of competing with C0020187 IgG for binding to recombinant human trimeric ARG2 enzyme (i.e., those scFv that bind at or near the epitope bound by C0020187 IgG) were elucidated in a competition format assay, using the HTRF™ platform. […]
A ‘Maximum’ binding signal was determined by analysing the binding of C0020187 IgG to biotinylated recombinant human trimeric ARG2 enzyme in the absence of competitor scFv. […] Finally, a ‘Background’ signal was determined by analysing the fluorescence generated in the absence of C0020187 IgG.
Unpurified periplasmic scFv were supplied in sample buffer consisting of 200 mM tris base, pH 7.4, 0.5 mM EDTA, and 0.5 M sucrose. […] Assay plates were sealed and then incubated overnight at room temperature in the dark, prior to measuring time-resolved fluorescence at 620 and 665 nm emission wavelengths on a fluorescence plate reader.
Data were analysed by calculating % Delta F values for each sample. % Delta F was determined according to equation 1. […]
Data were again analysed by calculating the % Delta F and % Control binding values for each sample. […]
(TR-FRET usually uses a lanthanide donor and a delayed reading to cut background.)

B1: C0021142: anti-ARG2 antibody, VH SEQ ID NO: 232, VL SEQ ID NO: 237 (antibody, listed as Homo sapiens, V domains shown)
VH: EVQLLESGGGLVQPGGSLRLSCAASGFTFSSYAMSWVRQAPGKGLEWVSAHTHSPGSTYYADSVKGRFTISRDNSKNTLYLQMNSLRAEDTAVYYCARLRADLGLYMDLWGRGTLVTVSS
VL: QSVLTQPPSVSAAPGQKVTISCSGSSSNIGNHYVSWYQQLPGTAPKLLIYDNSERPSGVPDRFSGSKSGTSATLGITGLQTGDEADYYCGTWDSSLSALVFGGGTKLTVL
modifications: C0021142
Broadly, the IC50 is the concentration that gives 50% inhibition. For the molecule B1, the IC50 with trimeric human ARG2 amounted to 97.6 nM; in test [1] it was 57.8 nM.
